Assay [1] concerns the target human noradrenaline transporter (hNET) (human) (UniProt P23975). The assay is described as follows: cell-based or functional assay.
For assay [2] the target is unchanged.

Chain of human noradrenaline transporter (hNET) (human) (P23975 whole entry): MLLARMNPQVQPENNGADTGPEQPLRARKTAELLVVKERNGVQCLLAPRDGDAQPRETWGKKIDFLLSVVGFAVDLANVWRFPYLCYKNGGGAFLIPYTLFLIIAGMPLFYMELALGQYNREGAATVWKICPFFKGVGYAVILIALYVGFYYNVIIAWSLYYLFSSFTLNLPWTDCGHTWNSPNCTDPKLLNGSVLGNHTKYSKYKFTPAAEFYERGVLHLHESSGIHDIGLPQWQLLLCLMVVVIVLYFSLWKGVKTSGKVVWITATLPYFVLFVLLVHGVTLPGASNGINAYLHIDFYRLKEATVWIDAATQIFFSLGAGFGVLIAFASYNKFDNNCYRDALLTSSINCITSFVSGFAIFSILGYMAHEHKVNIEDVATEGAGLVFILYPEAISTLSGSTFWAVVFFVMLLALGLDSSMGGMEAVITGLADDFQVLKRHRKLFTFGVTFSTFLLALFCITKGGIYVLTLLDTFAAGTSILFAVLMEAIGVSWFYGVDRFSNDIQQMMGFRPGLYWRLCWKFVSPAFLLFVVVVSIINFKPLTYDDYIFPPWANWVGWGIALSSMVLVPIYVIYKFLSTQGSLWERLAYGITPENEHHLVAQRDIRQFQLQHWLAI

In turn, χ-MrIA (SEQ ID NO. 1) (peptide) yielded an Ay log IC50 for inhibition of 3H-NA through hNET in assay [1] of -6.3 log M.

In assay [2], “χ-MrIA (SEQ ID NO. 1) (peptide; other documents disagree on this pair)” returned an Ay log IC50 for displacement of 3H-nisoxetine from hNET of -5.14 log M.

Values taken from patent US20060142201A1.
